Test results: PMC11270187 (Antibodies, 2024)

Key:
[1] = target: T1, TEV-cleaved recombinant HLA-DR (Homo sapiens, …); assay: BLI; Fabs loaded on FAB2G biosensors; two-fold dilutions of TEV-cleaved HLA-DR from 500 nM; 25 °C; PBS pH 7.4, 0.01% BSA, 0.002% Tween; 1:1 model; settings: both partners purified
T1 construct: also called TEV-cleaved HLA-DR; source: HEK 293S (GnT I-/-), purified (HisTrap Ni-NTA, SEC), TEV-cleaved; for crystallization also EndoH-treated and purified a second time

HLA-DR on BJAB cells [2] = target: T2, HLA-DR on BJAB cells (Homo sapiens; endogenous HLA-DR of BJAB …); assay: flow cytometry on cells; full antibody titration of purified IgGs on HLA-DR-expressing BJAB cells, Fc Block, 1 h at 4 °C, detected with AF488 goat anti-human IgG Fcγ; also after storage of the IgGs at -20, 4 or 40 °C for up to 4 weeks; settings: one partner purified
T2 construct: HLA-DR α chain, endogenous on BJAB B-lymphoblastoid cells; HLA-DR β chain, endogenous on BJAB B-lymphoblastoid cells; also called HLA-DR-expressing B-lymphoblastoid cell line BJAB; source: endogenous, on BJAB cells

HLA-DR on BJAB cells [3] = target: T2, HLA-DR on BJAB cells; assay: flow cytometry on cells; screen: purified IgGs at 10 µg/mL on HLA-DR-expressing BJAB cells, Fc Block, 1 h at 4 °C, detected with AF488 goat anti-human IgG Fcγ; settings: one partner purified

| Binder | fold improvement of EC50 against V17 (HLA-DR on BJAB cells [2]) | other results |
| --- | --- | --- |
|  (Fab, V domains shown, as the heavy chain of m11 with the changes below; as the light chain of m11; also called V14-V71K/F78V double mutant; V14-V71K-F78V; source: FreeStyle 293-F, transfected, purified (KappaSelect, MonoS, SEC)) VH: QVQLQESGPGLVKPSETLSLTCTVSGFSLTSYGVHWIRQPPGKGLEWIGVIWAGGSINYNSALMSRVTISKDTSKNQVSLKLSSVTAADTAVYYCARAYGDYVHYAMDYWGQGTLVTVSS VL: DIQMTQSPSSLSASVGDRVTITCRASQEISGYLTWLQQKPGKAPKLLIYAASTLDSGVPSRFSGSGSGTDFTLTISSLQPEDFATYYCLQYTNYPLTFGQGTKLEIK | – | Kd [1]: 0.206 µM |
| humanized 44H10 version 19 IgG (V17 with light chain G66R back-mutation) (antibody, V domains shown, as the heavy chain of m5; as the light chain of m5 with the change below; IgG with human Fc; also called V19; source: FreeStyle 293-F, transfected, purified (protein A, SEC)) VH: QVTLKESGPVLVKPTETLTLTCTVSGFSLTSYGVHWIRQPPGKALEWLAVIWAGGSISYSTSLMSRLTISKDTSKSQVVLTMTNMDPVDTATYYCARAYGDYVHYAMDYWGQGTLVTVSS VL: DIQMTQSPSSLSASVGDRVTITCRASQEISGYLTWLQQKPGKAPKLLIYAASTLDSGVPSRFSGSRSGTDFTLTISSLQPEDFATYYCLQYTNYPLTFGQGTKLEIK | ~3 fold | – |
| humanized 44H10 version 21 IgG (V17 with light chain S60K and G66R back-mutations) (antibody, V domains shown, as the heavy chain of m5 (IGHV2-26 with Kabat 44H10 CDRs); as the light chain of m5 with the changes below; IgG with human Fc; also called V21; source: FreeStyle 293-F, transfected, purified (protein A, SEC)) VH: QVTLKESGPVLVKPTETLTLTCTVSGFSLTSYGVHWIRQPPGKALEWLAVIWAGGSISYSTSLMSRLTISKDTSKSQVVLTMTNMDPVDTATYYCARAYGDYVHYAMDYWGQGTLVTVSS VL: DIQMTQSPSSLSASVGDRVTITCRASQEISGYLTWLQQKPGKAPKLLIYAASTLDSGVPKRFSGSRSGTDFTLTISSLQPEDFATYYCLQYTNYPLTFGQGTKLEIK | ~3 fold | – |
| humanized 44H10 version 22 IgG (antibody, V domains shown, as the heavy chain of m10 (IGHV4-59 with Kabat 44H10 CDRs) with the back-mutations below; as the light chain of m5 (IGKV1-16, printed here as IGHK1-16, with Kabat 44H10 CDRs) with the back-mutations below; IgG with human Fc; also called V22; lead humanized candidate; source: FreeStyle 293-F, transfected, purified (protein A, SEC)) VH: QVQLQESGPGLVKPSETLSLTCTVSGFSLTSYGVHWIRQPPGKGLEWIGVIWAGGSINYNSALMSRVTISKDTSKNQVSLKLSSVTAADTAVYYCARAYGDYVHYAMDYWGQGTLVTVSS VL: DIQMTQSPSSLSASVGDRVTITCRASQEISGYLTWLQQKPGKAPKLLIYAASTLDSGVPKRFSGSRSGTDFTLTISSLQPEDFATYYCLQYTNYPLTFGQGTKLEIK | – | fold reduction in EC50 against parental 44H10 IgG (HLA-DR on BJAB cells [2]): < 2 fold |
| humanized 44H10 version 20 IgG (V17 with light chain S60K back-mutation) (antibody, V domains shown, as the heavy chain of m5; as the light chain of m5 with the change below; IgG with human Fc; also called V20; source: FreeStyle 293-F, transfected, purified (protein A, SEC)) VH: QVTLKESGPVLVKPTETLTLTCTVSGFSLTSYGVHWIRQPPGKALEWLAVIWAGGSISYSTSLMSRLTISKDTSKSQVVLTMTNMDPVDTATYYCARAYGDYVHYAMDYWGQGTLVTVSS VL: DIQMTQSPSSLSASVGDRVTITCRASQEISGYLTWLQQKPGKAPKLLIYAASTLDSGVPKRFSGSGSGTDFTLTISSLQPEDFATYYCLQYTNYPLTFGQGTKLEIK | ~3 fold | – |
| parental 44H10 IgG (antibody, V domains shown, murine IGHV2-9; Fab part also in PDB 8EUQ; murine IGKV9-124; also in PDB 8EUQ; IgG; also called mAb 44H10; murine mAb 44H10; source: FreeStyle 293-F, transfected, purified (protein A, SEC)) VH: QVQLKESGPGLVAPSQSLSITCTVSGFSLTSYGVHWVRQPPGKGLEWLGVIWAGGSINYNSALMSRLSISKDNFKSQVFLKMSSLQTDDTAMYYCARAYGDYVHYAMDYWGQGTSVTASS VL: DIQMTQSPSSLSASLGQRVSLTCRASQEISGYLTWLQQKPDGTIKRLVYAASTLDSGVPKRFSGSRSGSDYSLTISSLESEDFADYYCLQYTNYPLTFGAGTKLELK | – | binding result (HLA-DR on BJAB cells [3]): binds |
